The supplement of paper PMC10724198
± gives the standard deviation of the averaged measurements.

Tested on: Saccharomyces cerevisiae
Experiment: protein stability index of tFT-peptide fusion (C-terminal peptide) (PSI (0-1 scale)); higher = more stable (slower turnover)
Details: temperature: 30 C
Protocol: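 MPS profiling in S. cerevisiae of the yeast C-terminome library: the last 12 aa of each annotated ORF are fused to the C-terminus of a sfGFP-mCherry timer, after a GGGS linker. Cells are FACS-sorted into 8 mCherry/sfGFP bins and deep-sequenced. PSI runs from 0 (unstable) to 1 (stable); wild type and das1Δ backgrounds, two technical replicates each.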

[1] = genetic background: das1 deletion

KEALLTRLEHMI [SWC7 C-terminal 12 aa]
protein stability index [1]: 0.682 ± 0.015 | protein stability index (genetic background: wild type): 0.624 ± 0.011

ELKEGRTFLGRS [APQ13 C-terminal 12 aa]
protein stability index [1]: 0.703 ± 0.014 | protein stability index (genetic background: wild type): 0.695 ± 0.028

LLISMIAAGILL [GAS2 C-terminal 12 aa]
protein stability index [1]: 0.5322 ± 0.0015 | protein stability index (genetic background: wild type): 0.551 ± 0.017

QQSPHPVVDNDK [KIP2 C-terminal 12 aa]
protein stability index [1]: 0.6922 ± 0.0065 | protein stability index (genetic background: wild type): 0.682 ± 0.035

ATVSKIIKLDRK [MYO4 C-terminal 12 aa]
protein stability index [1]: 0.711 ± 0.0089 | protein stability index (genetic background: wild type): 0.691 ± 0.025

DQFQKVEKSIVK [RRF1 C-terminal 12 aa]
protein stability index [1]: 0.69 ± 0.02 | protein stability index (genetic background: wild type): 0.675 ± 0.061

WKEDADKNAGHK [OCH1 C-terminal 12 aa]
protein stability index [1]: 0.706 ± 0.012 | protein stability index (genetic background: wild type): 0.731 ± 0.0062

NEQVKKFFLNNV [NAS6 C-terminal 12 aa]
protein stability index [1]: 0.701 ± 0.029 | protein stability index (genetic background: wild type): 0.714 ± 0.01

GWYVGRYYRITR [IMD1 C-terminal 12 aa]
protein stability index [1]: 0.714 ± 0.017 | protein stability index (genetic background: wild type): 0.6944 ± 0.0055

QTTFLATAIVLC [YOR331C C-terminal 12 aa]
protein stability index [1]: 0.441 ± 0.018 | protein stability index (genetic background: wild type): 0.4167 ± 0.0014

KDVETLSVSDEK [SEO1 C-terminal 12 aa]
protein stability index [1]: 0.686 ± 0.021 | protein stability index (genetic background: wild type): 0.696 ± 0.043

ESTPKDAARSTN [ASF1 C-terminal 12 aa]
protein stability index [1]: 0.69 ± 0.025 | protein stability index (genetic background: wild type): 0.705 ± 0.028

VKKSNWSNYFKS [PCL2 C-terminal 12 aa]
protein stability index [1]: 0.6868 ± 0.0023 | protein stability index (genetic background: wild type): 0.682 ± 0.033

VEKDLVSVGSTW [NAR1 C-terminal 12 aa]
protein stability index [1]: 0.676 ± 0.0024 | protein stability index (genetic background: wild type): 0.7073 ± 0.0067

SSVKKKLYPKSK [RIM11 C-terminal 12 aa]
protein stability index [1]: 0.704 ± 0.015 | protein stability index (genetic background: wild type): 0.693 ± 0.073

QRTVKQEGNKGG [GZF3 C-terminal 12 aa]
protein stability index [1]: 0.712 ± 0.021 | protein stability index (genetic background: wild type): 0.69986 ± 0.00047

DDDDDGPYADDS [GSY2 C-terminal 12 aa]
protein stability index [1]: 0.707 ± 0.0079 | protein stability index (genetic background: wild type): 0.706 ± 0.019

NNLNTNTSTTTQ [MIT1 C-terminal 12 aa]
protein stability index [1]: 0.682 ± 0.011 | protein stability index (genetic background: wild type): 0.68 ± 0.065

DVEDVLIDTLCN [PEX22 C-terminal 12 aa]
protein stability index [1]: 0.723 ± 0.019 | protein stability index (genetic background: wild type): 0.678 ± 0.03

PKRGGLFGFGRL [JIP4 C-terminal 12 aa]
protein stability index [1]: 0.7853 ± 0.0046 | protein stability index (genetic background: wild type): 0.762 ± 0.023

TDCGLETEEIDI [RAD14 C-terminal 12 aa]
protein stability index [1]: 0.663 ± 0.025 | protein stability index (genetic background: wild type): 0.6823 ± 0.0022

QEANDDLMIDVN [ENP1 C-terminal 12 aa]
protein stability index [1]: 0.678 ± 0.045 | protein stability index (genetic background: wild type): 0.699 ± 0.015

EGEYADNVEPLA [PRY1 C-terminal 12 aa]
protein stability index [1]: 0.7124 ± 0.0048 | protein stability index (genetic background: wild type): 0.685 ± 0.02

INSQTMTVTTAL [VHC1 C-terminal 12 aa]
protein stability index [1]: 0.685 ± 0.039 | protein stability index (genetic background: wild type): 0.69051 ± 0.00012

MIVRFFKKVTFR [CHS1 C-terminal 12 aa]
protein stability index [1]: 0.7384 ± 0.0049 | protein stability index (genetic background: wild type): 0.705 ± 0.008

SYLKGYIGCKIS [YPR092W C-terminal 12 aa]
protein stability index [1]: 0.745 ± 0.042 | protein stability index (genetic background: wild type): 0.569 ± 0.033

HCLSLCTIQKMI [YOR231C-A C-terminal 12 aa]
protein stability index [1]: 0.7075 ± 0.0048 | protein stability index (genetic background: wild type): 0.159 ± 0.01

CKQNSNCEYLYM [YOR365C C-terminal 12 aa]
protein stability index [1]: 0.682 ± 0.012 | protein stability index (genetic background: wild type): 0.699 ± 0.012

LIDVVPRRPLPQ [HAP5 C-terminal 12 aa]
protein stability index [1]: 0.734 ± 0.033 | protein stability index (genetic background: wild type): 0.723 ± 0.03

TLHDDRESKSED [CMK2 C-terminal 12 aa]
protein stability index [1]: 0.6829 ± 0.0059 | protein stability index (genetic background: wild type): 0.694 ± 0.036

LVSMTILVSGLI [SHE9 C-terminal 12 aa]
protein stability index [1]: 0.246 ± 0.025 | protein stability index (genetic background: wild type): 0.262 ± 0.02

FSLLSFISYFLL [YPS6 C-terminal 12 aa]
protein stability index [1]: 0.665 ± 0.053 | protein stability index (genetic background: wild type): 0.379 ± 0.011

EPEAEQAVEDTA [HSP30 C-terminal 12 aa]
protein stability index [1]: 0.685 ± 0.018 | protein stability index (genetic background: wild type): 0.6594 ± 0.0041

GEYLRDEDTLFT [NIP7 C-terminal 12 aa]
protein stability index [1]: 0.727 ± 0.011 | protein stability index (genetic background: wild type): 0.725 ± 0.013
